From US20060088847

Sequence of GST-B23 protein, P06748 (P06748 whole entry): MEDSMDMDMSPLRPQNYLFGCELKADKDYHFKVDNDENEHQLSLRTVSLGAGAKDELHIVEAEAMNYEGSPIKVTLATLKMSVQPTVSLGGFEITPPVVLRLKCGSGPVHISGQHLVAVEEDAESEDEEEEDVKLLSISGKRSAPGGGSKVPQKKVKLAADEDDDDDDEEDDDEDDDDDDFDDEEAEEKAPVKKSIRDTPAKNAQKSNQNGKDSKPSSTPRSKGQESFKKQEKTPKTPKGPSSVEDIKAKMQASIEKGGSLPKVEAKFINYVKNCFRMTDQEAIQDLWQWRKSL
Sequence of Flag-p53, P04637 (P04637 whole entry, looked up): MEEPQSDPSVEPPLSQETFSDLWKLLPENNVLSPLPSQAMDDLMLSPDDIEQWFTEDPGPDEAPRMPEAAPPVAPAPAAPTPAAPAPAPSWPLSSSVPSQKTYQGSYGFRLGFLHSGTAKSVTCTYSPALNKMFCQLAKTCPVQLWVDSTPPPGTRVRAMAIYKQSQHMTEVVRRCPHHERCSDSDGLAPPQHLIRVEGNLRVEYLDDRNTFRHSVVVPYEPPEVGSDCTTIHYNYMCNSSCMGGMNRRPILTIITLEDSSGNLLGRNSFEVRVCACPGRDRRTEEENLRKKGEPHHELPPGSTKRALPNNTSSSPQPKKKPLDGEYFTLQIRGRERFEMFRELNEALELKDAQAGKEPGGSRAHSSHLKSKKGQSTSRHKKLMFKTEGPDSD

B1: GST-ARF-BP1 (3760-4374) (protein)
chain: IQAAVRQLEAEADAIIQMVREGQRARRQQQAATSESSQSEASVRREESPMDVDQPSPSAQDTQSIASDGTPQGEKEKEERPPELPLLSEQLSLDELWDMLGECLKELEESHDQHAVLVLQPAVEAFFLVHATERESKPPVRDTRESQLAHIKDEPPPLSPAPLTPATPSSLDPFFSREPSSMHISSSLPPDTQKFLRFAETHRTVLNQILRQSTTHLADGPFAVLVDYIRVLDFDVKRKYFRQELERLDEGLRKEDMAVHVRRDHVFEDSYRELHRKSPEEMKNRLYIVFEGEEGQDAGGLLREWYMIISREMFNPMYALFRTSPGDRVTYTINPSSHCNPNHLSYFKFVGRIVAKAVYDNRLLECYFTRSFYKHILGKSVRYTDMESEDYHFYQGLVYLLENDVSTLGYDLTFSTEVQEFGVCEVRDLKPNGANILVTEENKKEYVHLVCQMRMTGAIRKQLAAFLEGFYEIIPKRLISIFTEQELELLISGLPTIDIDDLKSNTEYHKYQSNSIQIQWFWRALRSFDQADRAKFLQFVTGTSKVPLQGFAALEGMNGIQKFQIHRDDRSTDRLPSAHTCFNQLDLPAYESFEKLRHMLLLAIQECSEGFGLA
- p53 ubiquitination, in vitro ubiquitination assay with purified components (Flag-p53, P04637): high levels of ubiquitinated p53 were generated by ARF-BP1 (lane 2)
- NPM/B23 ubiquitination, in vitro ubiquitination assay (GST-B23 protein, P06748): no significant ubiquitination of NPM/B23 was detected by Western blot analysis with the anti-NPM/B23 antibody
